# Experiments:
# Assay in all cases: ProtoArray methylated with G9a SET domain
# [1] = biological target: ACSL4, G9a-methylated (human) (UniProt O60488)
# [2] = biological target: ARL6IP1, G9a-methylated (human) (UniProt Q15041)
# [3] = biological target: BHMT, G9a-methylated (human) (UniProt Q93088)
# [4] = biological target: BLCAP, G9a-methylated (human) (UniProt P62952)
# [5] = biological target: C11orf73, G9a-methylated (human) (UniProt Q53FT3)
# [6] = biological target: C12orf60, G9a-methylated (human) (UniProt Q5U649)
# Chain of C12orf60, G9a-methylated (human) (Q5U649 whole entry): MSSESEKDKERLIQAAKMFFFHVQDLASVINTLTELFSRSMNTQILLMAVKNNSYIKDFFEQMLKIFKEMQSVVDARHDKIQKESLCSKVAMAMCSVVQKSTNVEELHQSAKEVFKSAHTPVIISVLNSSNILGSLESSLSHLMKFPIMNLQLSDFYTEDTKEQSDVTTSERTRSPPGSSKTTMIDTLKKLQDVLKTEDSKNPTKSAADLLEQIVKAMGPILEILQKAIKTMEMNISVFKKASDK
# [7] = biological target: CA13, G9a-methylated (human) (UniProt Q8N1Q1)
# Chain of CA13, G9a-methylated (human) (Q8N1Q1 whole entry): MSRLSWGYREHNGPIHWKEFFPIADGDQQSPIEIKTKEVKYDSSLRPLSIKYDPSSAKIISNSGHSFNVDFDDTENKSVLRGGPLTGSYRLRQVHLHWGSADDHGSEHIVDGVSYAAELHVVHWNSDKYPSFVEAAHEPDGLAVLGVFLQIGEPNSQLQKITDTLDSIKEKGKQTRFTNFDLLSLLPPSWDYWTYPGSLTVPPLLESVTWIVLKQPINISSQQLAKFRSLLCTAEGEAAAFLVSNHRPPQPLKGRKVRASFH
# [8] = biological target: CAB39L, G9a-methylated (human) (UniProt Q9H9S4)
# [9] = biological target: CCL24, G9a-methylated (human) (UniProt O00175)
# [10] = biological target: CDC2, G9a-methylated (human) (UniProt P06493)
# Chain of CDC2, G9a-methylated (human) (P06493 whole entry): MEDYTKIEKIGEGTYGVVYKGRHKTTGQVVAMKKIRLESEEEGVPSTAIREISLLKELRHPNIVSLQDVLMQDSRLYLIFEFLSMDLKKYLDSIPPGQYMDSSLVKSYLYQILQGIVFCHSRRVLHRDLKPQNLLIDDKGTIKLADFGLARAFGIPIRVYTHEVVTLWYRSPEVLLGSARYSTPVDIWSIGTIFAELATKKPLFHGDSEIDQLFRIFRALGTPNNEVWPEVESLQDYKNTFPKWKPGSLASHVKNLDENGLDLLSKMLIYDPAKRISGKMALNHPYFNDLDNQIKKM
# [11] = biological target: CDK10, G9a-methylated (human) (UniProt Q15131)
# [12] = biological target: CMTM3, G9a-methylated (human) (UniProt Q96MX0)
# Chain of CMTM3, G9a-methylated (human) (Q96MX0 whole entry): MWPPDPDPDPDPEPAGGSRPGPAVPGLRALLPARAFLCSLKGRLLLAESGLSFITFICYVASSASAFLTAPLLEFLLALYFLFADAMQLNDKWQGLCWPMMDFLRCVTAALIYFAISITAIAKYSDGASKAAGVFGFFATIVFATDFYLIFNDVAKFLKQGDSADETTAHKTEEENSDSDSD
# [13] = biological target: CRB3, G9a-methylated (human) (UniProt Q9BUF7)
# [14] = biological target: CRYZL1, G9a-methylated (human) (UniProt O95825)
# [15] = biological target: CUTC, G9a-methylated (human) (UniProt Q9NTM9)
# [16] = biological target: FTL, G9a-methylated (human) (UniProt P02792)
# Chain of FTL, G9a-methylated (human) (P02792 whole entry): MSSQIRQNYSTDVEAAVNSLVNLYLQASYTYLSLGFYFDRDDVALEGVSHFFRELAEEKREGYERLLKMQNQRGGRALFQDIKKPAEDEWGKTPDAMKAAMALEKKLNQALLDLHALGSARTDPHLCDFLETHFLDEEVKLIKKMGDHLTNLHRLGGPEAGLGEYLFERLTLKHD
# [17] = biological target: GAL, G9a-methylated (human) (UniProt P22466)
# [18] = biological target: GPX1, G9a-methylated (human) (UniProt P07203)
# Chain of GPX1, G9a-methylated (human) (P07203 whole entry): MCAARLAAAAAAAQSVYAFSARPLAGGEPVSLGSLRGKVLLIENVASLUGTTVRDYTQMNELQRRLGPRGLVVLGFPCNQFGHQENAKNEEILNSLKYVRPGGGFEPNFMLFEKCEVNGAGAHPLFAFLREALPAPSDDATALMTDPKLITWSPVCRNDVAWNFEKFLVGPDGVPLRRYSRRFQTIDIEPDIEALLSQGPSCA
# [19] = biological target: GPX5, G9a-methylated (human) (UniProt O75715)
# [20] = biological target: HS3ST1, G9a-methylated (human) (UniProt O14792)
# Chain of HS3ST1, G9a-methylated (human) (O14792 21-307 limits assumed): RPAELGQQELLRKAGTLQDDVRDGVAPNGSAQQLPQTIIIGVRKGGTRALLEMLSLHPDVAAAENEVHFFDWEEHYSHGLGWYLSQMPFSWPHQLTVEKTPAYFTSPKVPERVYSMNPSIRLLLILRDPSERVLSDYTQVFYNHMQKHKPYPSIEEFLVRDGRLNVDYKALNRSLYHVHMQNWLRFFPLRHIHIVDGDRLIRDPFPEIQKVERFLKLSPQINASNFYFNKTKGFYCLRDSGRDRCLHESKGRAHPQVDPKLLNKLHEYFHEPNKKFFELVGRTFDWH
# [21] = biological target: LARP6, G9a-methylated (human) (UniProt Q9BRS8)
# [22] = biological target: LPAL2, G9a-methylated (human) (UniProt Q16609)
# [23] = biological target: LTC4S, G9a-methylated (human) (UniProt Q16873)
# Chain of LTC4S, G9a-methylated (human) (Q16873 whole entry): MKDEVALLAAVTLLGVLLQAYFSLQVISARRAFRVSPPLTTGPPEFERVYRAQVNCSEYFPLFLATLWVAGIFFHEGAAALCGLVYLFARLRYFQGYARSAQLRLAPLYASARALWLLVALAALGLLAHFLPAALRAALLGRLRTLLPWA
# [24] = biological target: MAGEH1, G9a-methylated (human) (UniProt Q9H213)
# [25] = biological target: MGC10433 (RNA-binding protein 42), G9a-methylated (human) (UniProt Q9BTD8)
# [26] = biological target: Magmas, G9a-methylated (human) (UniProt Q9Y3D7)
# [27] = biological target: NME7, G9a-methylated (human) (UniProt Q9Y5B8)
# Chain of NME7, G9a-methylated (human) (Q9Y5B8 37-376 limits assumed): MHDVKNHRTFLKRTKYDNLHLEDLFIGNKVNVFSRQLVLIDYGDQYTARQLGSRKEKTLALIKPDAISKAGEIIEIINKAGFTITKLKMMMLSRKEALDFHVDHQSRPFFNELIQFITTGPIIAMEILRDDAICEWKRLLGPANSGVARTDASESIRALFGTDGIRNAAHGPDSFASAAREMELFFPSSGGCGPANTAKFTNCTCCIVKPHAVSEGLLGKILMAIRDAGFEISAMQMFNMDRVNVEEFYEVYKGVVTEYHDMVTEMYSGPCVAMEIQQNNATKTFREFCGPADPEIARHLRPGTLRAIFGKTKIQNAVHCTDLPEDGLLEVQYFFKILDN
# [28] = biological target: PPARG, G9a-methylated (human) (UniProt P37231)
# [29] = biological target: PPIL5, G9a-methylated (human) (UniProt Q96L50)
# [30] = biological target: PTCD2, G9a-methylated (human) (UniProt Q8WV60)
# [31] = biological target: RAB7B, G9a-methylated (human) (UniProt Q96AH8)
# [32] = biological target: RDH11, G9a-methylated (human) (UniProt Q8TC12)
# Chain of RDH11, G9a-methylated (human) (Q8TC12 whole entry): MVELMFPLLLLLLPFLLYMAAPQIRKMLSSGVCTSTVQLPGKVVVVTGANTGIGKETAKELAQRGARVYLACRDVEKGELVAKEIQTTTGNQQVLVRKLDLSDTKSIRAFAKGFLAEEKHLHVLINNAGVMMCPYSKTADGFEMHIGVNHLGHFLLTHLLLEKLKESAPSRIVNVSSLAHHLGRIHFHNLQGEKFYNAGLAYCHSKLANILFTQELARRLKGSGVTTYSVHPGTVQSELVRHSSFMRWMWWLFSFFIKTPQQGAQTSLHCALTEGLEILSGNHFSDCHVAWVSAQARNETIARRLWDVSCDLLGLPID
# [33] = biological target: SCGB1A1, G9a-methylated (human) (UniProt P11684)
# Chain of SCGB1A1, G9a-methylated (human) (P11684 22-91 limits assumed): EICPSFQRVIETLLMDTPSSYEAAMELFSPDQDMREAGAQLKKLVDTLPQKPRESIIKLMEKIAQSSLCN
# [34] = biological target: SEC22B, G9a-methylated (human) (UniProt O75396)
# [35] = biological target: SERPINB2, G9a-methylated (human) (UniProt P05120)
# Chain of SERPINB2, G9a-methylated (human) (P05120 whole entry): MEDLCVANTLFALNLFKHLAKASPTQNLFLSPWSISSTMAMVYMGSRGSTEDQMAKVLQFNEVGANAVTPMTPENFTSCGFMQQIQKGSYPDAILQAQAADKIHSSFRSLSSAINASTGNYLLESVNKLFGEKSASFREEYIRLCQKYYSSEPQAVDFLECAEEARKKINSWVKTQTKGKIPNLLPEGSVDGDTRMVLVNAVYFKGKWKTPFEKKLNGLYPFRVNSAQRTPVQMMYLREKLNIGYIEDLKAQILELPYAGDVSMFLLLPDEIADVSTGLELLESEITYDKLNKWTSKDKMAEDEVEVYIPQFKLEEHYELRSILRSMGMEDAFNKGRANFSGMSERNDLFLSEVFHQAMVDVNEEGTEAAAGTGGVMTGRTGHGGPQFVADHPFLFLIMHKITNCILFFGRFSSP
# [36] = biological target: SH3YL1 (clone MGC:12275), G9a-methylated (human) (UniProt Q96HL8)
# Chain of SH3YL1 (clone MGC:12275), G9a-methylated (human) (Q96HL8 whole entry): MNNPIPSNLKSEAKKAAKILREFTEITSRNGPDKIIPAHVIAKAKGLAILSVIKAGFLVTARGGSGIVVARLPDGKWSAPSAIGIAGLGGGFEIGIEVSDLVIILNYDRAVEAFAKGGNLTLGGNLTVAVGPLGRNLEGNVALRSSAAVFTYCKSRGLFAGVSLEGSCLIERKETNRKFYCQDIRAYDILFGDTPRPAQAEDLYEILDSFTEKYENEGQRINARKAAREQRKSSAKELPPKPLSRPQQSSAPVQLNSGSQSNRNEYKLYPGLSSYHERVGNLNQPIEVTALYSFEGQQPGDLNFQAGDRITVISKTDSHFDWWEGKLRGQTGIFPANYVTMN
# [37] = biological target: SMAP1, G9a-methylated (human) (UniProt Q8IYB5)
# [38] = biological target: SMYD3, G9a-methylated (human) (UniProt Q9H7B4)
# Chain of SMYD3, G9a-methylated (human) (Q9H7B4 whole entry): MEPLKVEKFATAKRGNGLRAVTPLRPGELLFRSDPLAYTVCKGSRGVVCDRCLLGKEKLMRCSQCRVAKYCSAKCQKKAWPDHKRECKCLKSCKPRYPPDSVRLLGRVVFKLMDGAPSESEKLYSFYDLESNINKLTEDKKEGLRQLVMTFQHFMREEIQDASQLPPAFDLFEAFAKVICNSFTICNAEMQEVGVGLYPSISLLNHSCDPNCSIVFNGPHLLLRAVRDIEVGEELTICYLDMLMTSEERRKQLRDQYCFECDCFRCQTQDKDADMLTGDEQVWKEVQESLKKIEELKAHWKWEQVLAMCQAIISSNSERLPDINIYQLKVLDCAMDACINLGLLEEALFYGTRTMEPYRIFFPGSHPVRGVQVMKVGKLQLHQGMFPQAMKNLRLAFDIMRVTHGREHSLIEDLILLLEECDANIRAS
# [39] = biological target: SMYD5, G9a-methylated (human) (UniProt Q6GMV2)
# [40] = biological target: SSR4, G9a-methylated (human) (UniProt P51571)
# Chain of SSR4, G9a-methylated (human) (P51571 24-173 limits assumed): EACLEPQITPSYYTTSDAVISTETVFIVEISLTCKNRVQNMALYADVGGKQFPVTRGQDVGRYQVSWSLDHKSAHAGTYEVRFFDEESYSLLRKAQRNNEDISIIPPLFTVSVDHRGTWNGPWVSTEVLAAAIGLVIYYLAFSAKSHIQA
# [41] = biological target: TCTA, G9a-methylated (human) (UniProt P57738)
# [42] = biological target: TEAD4, G9a-methylated (human) (UniProt Q15561)
# [43] = biological target: TTC27, G9a-methylated (human) (UniProt Q6P3X3)
# [44] = biological target: ZBP1, G9a-methylated (human) (UniProt Q9H171)
# Chain of ZBP1, G9a-methylated (human) (Q9H171 whole entry): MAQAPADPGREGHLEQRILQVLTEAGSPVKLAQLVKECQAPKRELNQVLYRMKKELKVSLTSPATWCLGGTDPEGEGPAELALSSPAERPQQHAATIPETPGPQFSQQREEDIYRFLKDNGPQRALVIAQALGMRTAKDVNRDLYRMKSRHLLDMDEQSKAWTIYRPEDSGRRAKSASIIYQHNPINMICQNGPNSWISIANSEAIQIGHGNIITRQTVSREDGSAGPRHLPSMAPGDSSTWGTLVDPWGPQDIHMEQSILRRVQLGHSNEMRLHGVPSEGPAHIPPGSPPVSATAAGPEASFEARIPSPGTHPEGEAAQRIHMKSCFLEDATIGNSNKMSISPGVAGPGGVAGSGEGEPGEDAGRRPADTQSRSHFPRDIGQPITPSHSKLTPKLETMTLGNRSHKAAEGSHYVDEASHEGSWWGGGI
# [45] = biological target: ZNF695, G9a-methylated (human) (UniProt Q8IW36)
# Chain of 3× Flag-3×MBT (designed binder) (chain): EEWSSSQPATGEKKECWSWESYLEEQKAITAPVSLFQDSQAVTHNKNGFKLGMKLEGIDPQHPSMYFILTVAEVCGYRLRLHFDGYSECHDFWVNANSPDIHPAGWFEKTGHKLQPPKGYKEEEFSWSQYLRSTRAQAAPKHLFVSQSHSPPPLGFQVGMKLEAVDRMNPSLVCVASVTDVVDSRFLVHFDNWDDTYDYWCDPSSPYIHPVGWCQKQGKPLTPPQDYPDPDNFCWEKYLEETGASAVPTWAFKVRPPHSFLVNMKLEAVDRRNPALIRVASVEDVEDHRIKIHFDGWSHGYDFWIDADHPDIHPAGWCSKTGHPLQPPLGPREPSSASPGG
# Chain of BLCAP, G9a-methylated (human) (P62952 whole entry): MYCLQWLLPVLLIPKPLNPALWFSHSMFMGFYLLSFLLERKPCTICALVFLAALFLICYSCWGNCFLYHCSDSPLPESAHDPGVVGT
substance,measurement,setting,value
3× Flag-3×MBT (designed binder),G9a Average SNR,[1],13.5
same,G9a Average SNR,[2],21.8
same,G9a Average SNR,[3],16.6
same,G9a Average SNR,[4],26.4
same,G9a Average SNR,[5],13.5
same,G9a Average SNR,[6],12.4
same,G9a Average SNR,[7],13
same,G9a Average SNR,[8],14.6
same,G9a Average SNR,[9],34.5
same,G9a Average SNR,[10],25.3
same,G9a Average SNR,[11],13.6
same,G9a Average SNR,[12],14.1
same,G9a Average SNR,[13],15.2
same,G9a Average SNR,[14],11.2
same,G9a Average SNR,[15],13.6
same,G9a Average SNR,[16],34.2
same,G9a Average SNR,[17],13.1
same,G9a Average SNR,[18],15.8
same,G9a Average SNR,[19],25.5
same,G9a Average SNR,[20],13.3
same,G9a Average SNR,[21],15.6
same,G9a Average SNR,[22],33.3
same,G9a Average SNR,[23],14.1
same,G9a Average SNR,[24],44
same,G9a Average SNR,[25],14.1
same,G9a Average SNR,[26],13.9
same,G9a Average SNR,[27],14.1
same,G9a Average SNR,[28],12.8
same,G9a Average SNR,[29],11.8
same,G9a Average SNR,[30],19.4
same,G9a Average SNR,[31],12.7
same,G9a Average SNR,[32],26.6
same,G9a Average SNR,[33],19.6
same,G9a Average SNR,[34],12.6
same,G9a Average SNR,[35],17.9
same,G9a Average SNR,[36],12.9
same,G9a Average SNR,[37],21.5
same,G9a Average SNR,[38],17.6
same,G9a Average SNR,[39],20.7
same,G9a Average SNR,[40],14.4
same,G9a Average SNR,[41],16.4
same,G9a Average SNR,[42],16.9
same,G9a Average SNR,[43],20.7
same,G9a Average SNR,[44],14.7
same,G9a Average SNR,[45],20.3
